Reference: patent US20220064329A1

Biological target: recombinant human activated Factor VII (FVIIa) (human) (UniProt P08709)
Assay: cell-based or functional assay

recombinant human activated Factor VII (FVIIa) (human), sequence (P08709 61-212, chain 1 of 2): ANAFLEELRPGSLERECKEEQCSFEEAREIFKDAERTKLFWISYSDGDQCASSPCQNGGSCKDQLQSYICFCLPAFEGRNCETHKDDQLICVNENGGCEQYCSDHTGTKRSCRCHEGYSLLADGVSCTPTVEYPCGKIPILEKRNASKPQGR
recombinant human activated Factor VII (FVIIa) (human), sequence (P08709 213-466, chain 2 of 2): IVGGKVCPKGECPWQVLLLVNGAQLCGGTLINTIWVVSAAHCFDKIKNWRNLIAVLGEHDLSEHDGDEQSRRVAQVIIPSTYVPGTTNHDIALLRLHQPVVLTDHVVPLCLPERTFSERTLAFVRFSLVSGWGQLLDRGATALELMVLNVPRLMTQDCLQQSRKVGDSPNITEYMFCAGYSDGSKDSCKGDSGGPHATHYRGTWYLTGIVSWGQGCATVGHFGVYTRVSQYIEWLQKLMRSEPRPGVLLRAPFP

apparent second order rate constant of inhibition of FVIIa by alpha-2-macroglobulin, no antibody [M⁻¹ s⁻¹]	apparent second order rate constant (kinh) of inhibition of free FVIIa by antithrombin [M⁻¹ s⁻¹]	Substance
475	–	human plasma-derived alpha-2-macroglobulin (from UniProt P01023 24-1474)
–	124	human plasma-derived antithrombin (AT) (from UniProt P01008 33-464)
